In this test the target is Recombinant human VISTA Fc Chimera (human (homo sapiens)). Description: functional ELISA: rhVISTA coated at 2 µg/mL, biotin-labeled rhVSIG3, streptavidin-HRP. The procedure: Following blocking of the wells with 1% BSA, varying amounts of rhVSIG3 labeled with biotin was added. Biotin label associated with the plate due to the rhVSIG3—rhVISTA interaction was detected with streptavidin-HRP.
Recombinant human VISTA Fc Chimera (human (homo sapiens)), sequence (chain, as listed by the source mutant limits assumed): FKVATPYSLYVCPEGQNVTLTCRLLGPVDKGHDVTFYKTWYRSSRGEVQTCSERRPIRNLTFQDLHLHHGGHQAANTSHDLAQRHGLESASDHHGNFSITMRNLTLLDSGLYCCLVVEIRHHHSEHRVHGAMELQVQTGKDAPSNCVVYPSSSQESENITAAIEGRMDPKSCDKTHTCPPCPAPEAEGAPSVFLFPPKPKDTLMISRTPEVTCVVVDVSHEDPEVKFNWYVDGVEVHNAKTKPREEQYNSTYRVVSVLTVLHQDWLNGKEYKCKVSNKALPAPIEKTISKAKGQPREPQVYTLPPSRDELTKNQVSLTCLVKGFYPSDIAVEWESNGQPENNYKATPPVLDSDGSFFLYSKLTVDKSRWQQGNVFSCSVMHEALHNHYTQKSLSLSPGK

B1: Recombinant human VSIG3 Fc Chimera (Fc fusion)
chain: LEVSESPGSIQVARGQTAVLPCTFTTSAALINLNVIWMVTPLSNANQPEQVILYQGGQMFDGAPRFHGRVGFTGTMPATNVSIFINNTQLSDTGTYQCLVNNLPDIGGRNIGVTGLTVLVPPSAPHCQIQGSQDIGSDVILLCSSEEGIPRPTYLWEKLDNTLKLPPTATQDQVQGTVTIRNISALSSGLYQCVASNAIGTSTCLLDLQVISPQPRNIGLIAG
Usually EC50 stands for the concentration needed to bring the measured effect to its halfway point. Consider B1, for which the EC50 was roughly 0.25 µg/mL.

The record behind these values is patent publication US11649285B2, “Identification of VSIG3/VISTA as a novel immune checkpoint and use thereof for immunotherapy” (BIO-TECHNE CORPORATION, dated 2023).
